Assay results reported in the Human Domainome abundance scans (Beltran et al. 2025).

B1: Transcription elongation factor A N-terminal and central domain-containing protein, residues 30 to 77; numbered along this chain, Q8N8B7 (parent)
chain: LTELETIYVTKEHLQETDVVRAVYRVLKNCPSVALKKKAKCLLSKWKA

Variants of: B1
Assay: abundance fitness (aPCA) (normalised: wild type 0, dead -1); higher = more abundant; growth selection in yeast, the domain comes from the species named
Conditions: Homo sapiens

Abundance fitness, by site and new letter:
K37: A -0.365; H -0.609; P -1.02; T -0.574; R 0.023; I -0.337; N -0.155; C -0.895; W -0.68; S -0.346; G -0.578; Q -0.553; E -0.248
T17: S -0.103; Y -0.784; W -0.142; V -0.526
K36: M 0.085; P -0.211; Q -0.063; S -0.609; G -0.109; I -0.152; N -0.833; E -1.32; C -0.225; V 0.066; Y 0.049; F -0.007; A -0.063; H -0.633; W 0.113; L -0.137
D18: I -0.263; R 0.24; A 0.098; L -0.077; P -0.154; Y 0.057; F 0.169; K -0.136; E -0.382; M 0.384; C -0.09; Q -0.07; T 0.158; S 0.353; G 0.354; W 0.172; V -0.094; H 0.049
V33: E -0.208; S 0.089; Q 0.007; G 0.012; M -0.027; C 0.041; P 0.129; N -0.279; F 0.427; L 0.174; R 0.155; Y -0.327; W -0.096; D -0.086; A -0.016; T -0.146; H -0.527
N29: S -0.144; I -0.167; T 0.024; R 0.144; D -0.193; F -0.09; E -0.536; Y -0.466; A -0.086; K -0.029; G -0.282; P -0.904; C 0; L 0.004; V -0.186; M 0.052; Q -0.259
A34: H -0.057; P -0.378; V -0.489; M -0.163; T -0.161; Q -0.464; E -0.308; W -0.176; I -0.826; K 0.148; D 0.097; G -0.028; N 0.266; L -0.279; Y -0.174; F -0.305; C 0.149
L27: Q -0.648; F -0.754; D -0.901; G -0.88; E -0.932; R -0.848; I -0.053; Y -0.352; P -0.444; T -0.883; C -0.994; K -0.845; N -0.846; A -0.593; S -0.966; V -0.445; W -0.031
K28: M -0.749; T -0.169; V -0.142; A -0.509; L -0.237; F -0.247; P -0.379; N -0.445; I -0.149; D -0.789; Q -0.734; E -0.679; R -0.033; W 0.04; S -0.368; G -0.402; H -0.435
R25: G -0.136; N -0.091; S -0.257; C -0.92; T -0.528; Q -0.038; P -0.812; K -0.364; Y -0.805; A -0.326; L -0.71; V -0.849; E -0.743; W -0.837; D -0.443; F -0.811
V23: N -1.04; P -0.833; A -0.453; D -0.578; I 0.189; F -0.021; M -0.087; Q -0.901; K -0.573; G -0.72; H -0.81; L 0.041; E -0.584; S -0.54; W -0.009
